Measurements from patent US20100184697A1 (U S OF AMERICA AS REPRESENTED BY THE SECRETAR, published 2010).
Square brackets hold non-standard residues; d marks the D form. Ends that are not written are not given here. rhodamine = not defined here; Nle = CCCC[C@H](N)C(=O)O

Columns and labels:
[1] = target: T1, STAT3 tagged with eGFP on its N-terminus (UniProt P40763 1-770); assay: FRET efficiency (1-D0/D1) by rhodamine photobleaching in living cells
T1 construct: Stably expressed inside living HEK293 cells; also called eGFP-STAT3; not shown: eGFP (enhanced green fluorescent protein) tag
Text: (§1) An additional cysteine residue was positioned at the C-terminus of penetratin to facilitate labeling. Excitation of eGFP (donor) was facilitated using a 488-nm light source, and the emission spectrum was detected. In the absence of energy transfer between eGFP and rhodamine, excitation of eGFP would lead to an emission peak at 520-540 nm, whereas energy transfer from eGFP to an adjacent rhodamine fluorochrome acceptor would cause an emission in the 560-600 nm range. […] To confirm that FRET was occurring, acceptor photobleaching was performed with a 561 nm laser using an LSM 510 confocal microscope (Zeiss).
(§2) Excitation of eGFP was facilitated, and the emission spectrum detected, in accordance with the methods described in Example 6. FRET efficiency was calculated using equation 1-D0/D1, where D0 is fluorescence intensity of eGFP before rhodamine photobleaching and D1 is the intensity after rhodamine photobleaching.

eGFP-STAT1 [2] = target: T2, eGFP-STAT1 (UniProt P42224 1-750); assay: as above
T2 construct: Expressed inside living cells; not shown: eGFP (enhanced green fluorescent protein) tag
T2 sequence (looked up): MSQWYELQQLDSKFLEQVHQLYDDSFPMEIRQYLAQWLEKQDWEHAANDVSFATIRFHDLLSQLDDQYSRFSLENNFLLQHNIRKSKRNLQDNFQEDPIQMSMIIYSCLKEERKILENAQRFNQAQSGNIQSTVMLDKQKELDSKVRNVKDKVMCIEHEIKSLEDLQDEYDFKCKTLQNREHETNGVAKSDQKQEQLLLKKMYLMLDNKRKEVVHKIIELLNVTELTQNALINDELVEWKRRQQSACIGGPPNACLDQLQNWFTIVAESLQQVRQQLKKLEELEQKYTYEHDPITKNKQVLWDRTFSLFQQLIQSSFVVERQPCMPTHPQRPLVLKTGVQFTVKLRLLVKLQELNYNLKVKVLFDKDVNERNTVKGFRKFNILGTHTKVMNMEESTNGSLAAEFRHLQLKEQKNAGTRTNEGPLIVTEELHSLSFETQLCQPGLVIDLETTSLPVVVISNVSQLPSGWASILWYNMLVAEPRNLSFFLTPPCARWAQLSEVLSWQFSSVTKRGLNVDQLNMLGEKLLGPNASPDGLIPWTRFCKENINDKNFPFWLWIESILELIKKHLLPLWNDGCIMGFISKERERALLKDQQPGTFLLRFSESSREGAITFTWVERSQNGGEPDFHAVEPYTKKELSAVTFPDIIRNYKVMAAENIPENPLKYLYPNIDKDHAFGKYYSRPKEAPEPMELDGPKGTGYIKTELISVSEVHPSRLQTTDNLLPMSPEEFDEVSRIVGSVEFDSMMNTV
Text: as §1, §2

eGFP = target: T3, eGFP; assay: as above
T3 construct: Control, expressed inside living cells
Text: as §1, §2

eGFP-STAT1 [3] = target: T2, eGFP-STAT1; assay: FRET (eGFP donor, rhodamine acceptor, acceptor photobleaching) in living cells

T1 sequence (P40763 whole entry): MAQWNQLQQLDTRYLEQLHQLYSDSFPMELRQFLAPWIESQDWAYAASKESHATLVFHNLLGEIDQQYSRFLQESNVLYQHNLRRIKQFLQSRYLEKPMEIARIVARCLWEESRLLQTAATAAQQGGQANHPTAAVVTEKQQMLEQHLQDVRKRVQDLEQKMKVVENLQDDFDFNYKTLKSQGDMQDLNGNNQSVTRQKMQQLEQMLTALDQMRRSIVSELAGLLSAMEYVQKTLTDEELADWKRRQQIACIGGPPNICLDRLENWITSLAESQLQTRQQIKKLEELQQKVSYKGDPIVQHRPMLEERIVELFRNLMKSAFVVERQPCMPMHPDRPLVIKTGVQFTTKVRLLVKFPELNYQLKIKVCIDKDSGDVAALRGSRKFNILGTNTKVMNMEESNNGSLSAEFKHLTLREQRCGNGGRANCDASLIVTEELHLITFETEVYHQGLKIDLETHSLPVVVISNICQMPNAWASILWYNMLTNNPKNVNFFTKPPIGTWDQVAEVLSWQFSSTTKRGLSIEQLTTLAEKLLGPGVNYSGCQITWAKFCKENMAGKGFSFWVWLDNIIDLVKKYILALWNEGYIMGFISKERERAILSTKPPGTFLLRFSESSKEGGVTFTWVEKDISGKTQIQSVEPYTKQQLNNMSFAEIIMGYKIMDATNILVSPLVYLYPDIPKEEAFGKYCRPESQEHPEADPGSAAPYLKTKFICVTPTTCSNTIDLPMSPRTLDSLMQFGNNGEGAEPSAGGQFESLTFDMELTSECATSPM

B1: rhodamine-labeled STAT3-HEL2A-2 (peptide)
peptide: LDTRYLEQLHKLYRQIKIWFPNRR[Nle]KWKKC(rhodamine)
modifications: not fully specified; reading uncertain
notes: Synthetic peptide; also called STAT3-HEL2A-2 labeled with rhodamine
Work on B1 yielded an FRET efficiency [1] of 90.8%, an FRET efficiency (eGFP-STAT1 [2]) of ~12.8% and an FRET efficiency (eGFP) of ~15.2%. B1: no binding (eGFP-STAT1 [3]).
